Six molecules from patent US20170152308A1 can be followed below.

Sequences and labels used below:
B1: NI-205.14H5 (antibody, human IgG1, V domains shown)
VH: EVQLLESGGGLVQPGGSLRLSCAASGFTFRNYAMAWVRQAPGKGLEWVSAIPARGDKTYYADSVRGRFTISRDISKSALYLQMNSLRVEDTAVYYCAKAHHLYNKNFDYWGQGTLVTVSS
VL: EIVLTQSPGTLSLSPGETVTLSCRASQSVSSSNLAWYQQKPGQAPRLLIYGASSRATGIPDRFSGRGSGTDFTLTISRLEPEDFAVYYCQHYGTFGQGTKVDIK
B2: NI-205.68G5 (antibody, human IgG1, V domains shown)
VH: QVQLVESGGGVVQPGRSLRLSCAASGFTFSSYGMHWVRQAPGKGLEWVAIIYYDSSQRYYADSVKGRFTISRDNSKNALYLQMNSLRAEDTALYYCARDLPFHYHRSASFAPSDTWGQGTLVTVSS
VL: EIVLTQSPGTLSLSPGERATLSCRASQAVTNNYLAWYQQKPGQAPRLLVYAASSRATGIPDRFYGSGSGADFTLTISRLEPEDFAVYYCQQYGTSPITFGQGTRLEIK
B3: NI-205.8F8 (antibody, human IgG1, V domains shown)
VH: EVQLLESGGGLVQPGGSLRLSCAASGYTFSYYAMSWVRQAPGKGLEWVSTIGDSGSTTHYADSVKGRFTISRDNSKSTLYLQMNSLRAEDTAVYYCAKGLGPVAAIGDYWGQGTLVTVSS
VL: QSVLTQPPSASGTPGQRVTISCSGSSSNIGSNNVYWYQQLPGTAPKLLVYRNNQRPSGVPDRVSGSKSGSSASLAISGLRSEDEADYYCAAWDDSLRGYVFGTGTKVTVL
B4: NI-205.21G1 (antibody, human IgG1, V domains shown)
VH: QVQLVESGGGVVQPGMSLRLSCAASGFSFSSHGMHWVRQTPGKGLEWLAVISYDASNKSYADSVKGRFTISRDNSKKTLYLQMDSLRVEDTALYYCANAFSSSASGGYWGQGTLVTVSS
VL: DVVMTQSPLSLPVTLGQPASISCRSSQSLVHSDGVTYLNWFQQRPGQSPRRLIYKVSNRDSGVPDRFSGSGSGTDFTLEISRVEAEDVGIYYCMQGTHWPPWTFGQGTKVEIK
B5: NI-205.58E11 (antibody, human IgG1, V domains shown)
VH: EVQLLESGGGLVQPGGSLRLSCAASGFTFSSYSMSWVRQAPGKGLEWVATVGYGGTIYYADSVKGRFTISRDNSKNTLYLEMNSLRAEATAVYYCAKANYGGNRFGLDVWGQGTTVTVSS
VL: QSALTQPPSASGSPGQSVTISCTGTSSDVGGYNYVSWYQHQPGKAPKLMIYEVSKRPSGVPDRFSGSKSGNTASLTVSGLQAEDEADYYCSSYAGSNNLGVFGTGTEVTVL
B6: NI-205.36D5 (antibody, human IgG1, V domains shown)
VH: B2 VH with G26R, I50L, S55A, S56T, R58K, N84T, E89D, L93V, F102Y, S113A
VL: B2 VL with A28T, V29I, T30S, A85V, T94S

Changes are numbered by the printed parent chain.

The target in the first test is synthetic peptide of residues 390-414 of TDP-43 with phosphorylation at residues 409/410 (human). Kind of test: direct ELISA, coated antigen.
Chain of synthetic peptide of residues 390-414 of TDP-43 with phosphorylation at residues 409/410 (human) (peptide, as listed by the source): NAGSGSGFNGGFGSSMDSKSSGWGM
The molecule B1 yielded a concentration giving a half-maximal response (EC50) of 0.9 nM.

B2: the EC50 came out at 16.9 nM. This EC50 lies about 19-fold higher than the previous one.

B3: the EC50 is 5.1 nM.

B4 displayed an EC50 of 49.5 nM. This EC50 is about 9.7-fold higher than that of the molecule before.

On to B5, for which the EC50 turned out to be 6.9 nM.

For the next test the target is unchanged. Description: direct ELISA, coated antigen; direct ELISA, coated synthetic phospho-409/410 peptide 390-414 (3.3 ug/ml).
B6 had an EC50 of 4.3 nM.
